Test results from publication PMC8551079 (iScience, 2021).

Molecular target: T1, glutathione S-transferase (GST)-fused ABI5 (Arabidopsis thaliana, UniProt Q9SJN0 1-442)
T1 sequence (looked up): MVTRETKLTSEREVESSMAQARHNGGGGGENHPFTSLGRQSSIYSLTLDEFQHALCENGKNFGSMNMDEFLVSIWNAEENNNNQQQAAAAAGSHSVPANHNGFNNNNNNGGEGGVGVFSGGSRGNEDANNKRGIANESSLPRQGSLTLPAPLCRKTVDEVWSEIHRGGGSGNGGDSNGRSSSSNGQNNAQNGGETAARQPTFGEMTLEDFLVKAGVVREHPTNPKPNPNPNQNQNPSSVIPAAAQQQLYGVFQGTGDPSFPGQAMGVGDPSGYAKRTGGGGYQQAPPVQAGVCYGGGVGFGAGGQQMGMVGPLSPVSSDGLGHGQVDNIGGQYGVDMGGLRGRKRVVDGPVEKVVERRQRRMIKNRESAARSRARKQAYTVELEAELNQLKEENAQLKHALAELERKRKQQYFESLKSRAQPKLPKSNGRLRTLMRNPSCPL
Assay: pull-down

binding result: binds
B1: MYB70-His (natural protein)
chain: not shown
